# Assay results from the supplement of paper PMC12042874.
# ± gives the uncertainty stated by the source.
# Assay: amyloid nucleation score (Sup35N fusion, yeast selection) (log enrichment); library NNK2; higher = more nucleation; inactive = no reads after selection
# Outline: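 DiMSum was used to calculate nucleation scores as log enrichment of output over input reads, centred on the mode score of non-aggregating sequences. Sequences with fewer than 100 input reads were not scored. Input and output came from Illumina sequencing of plasmid inserts in psi-negative yeast expressing peptides of 20 random codons fused to Sup35N, induced 24 hours with 100 μM copper sulfate and then grown 7 days at 30°C on medium lacking adenine and uracil.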
row,Substance,amyloid nucleation score
1,SDVRVLNDQKSGVFC,0.706 ± 0.15
2,YVNMAVNLTTDGQMTWNSRT,6.65 ± 0.035
3,SGCVA,0.474 ± 0.24
4,EPHSAI,-0.1 ± 1
5,VGDSMMWVTDRAKGVPYGGD,0.285 ± 0.65
6,VRNGMANKGNDGRAAWEVNG,1.25 ± 0.21
7,VIHSPQMLSWSSHGNARFSK,0.628 ± 0.33
8,ATYINLVINSKSARLFLICG,4.732 ± 0.036
9,YMRMIYCMFRGNCWVVIVEA,0.216 ± 0.49
10,GSLAGAKL,-0.588 ± 0.76
11,WVNIYADLRLKVVAGNCCNV,3.38 ± 0.12
12,NCYSRALYSPCSPFLLTN,-1.73 ± 0.41
13,RYDSMIHRSVGWPGSYNKGH,-0.287 ± 0.31
14,WGRWAVSFYGLREDSLLSLG,-0.324 ± 0.53
15,WGSISNIFYLLRVLYCLSMS,1.79 ± 0.26
16,CLWSTN,0.801 ± 0.58
17,MRSRNLLS,inactive
18,DPITFEVSCNANVIDPNSLV,-1.22 ± 0.38
19,PTLVLKKAVEPTQENGSLTV,5.767 ± 0.051
20,APLNLSFIHPTFIWLYCLLG,4.27 ± 0.05
21,NWIPGVVEKRSRLSGFWSWL,0.657 ± 0.23
22,YMTVSRVHISRVCCVYTLNV,5.44 ± 0.064
23,YWFVGTPCAVRVGWFSQPHR,0.612 ± 0.45
24,DYDNW,-0.618 ± 1.1
25,YSHATFSPASNSYQKG,0.146 ± 0.56

row,Substance,amyloid nucleation score
1,CKRSWVSYMHW,-0.593 ± 1.1
2,SCFSIFMLIPSSATAIFSQI,-1.27 ± 1
3,NYLLMR,0.414 ± 0.35
4,DCLYRLSIKSSKAMVSHECR,-0.142 ± 0.79
5,NFRPCRVLRFGY,1.03 ± 0.66
6,IEFWDYKYVLVSSFVFKHDV,-0.069 ± 0.65
7,MSLLV,5.695 ± 0.029
8,FFDRMLYLRVARCTTFWPVD,0.492 ± 0.64
9,HDINRMG,0.391 ± 0.54
10,WSLLEF,inactive
11,GRNPVFWWQVLVATSRLNGQ,1.05 ± 0.32
12,VMIWVTA,0.637 ± 0.25
13,CVLVFIVNKTYA,4.13 ± 0.06
14,SLQGVM,-1.04 ± 0.44
15,LILGYFRKELFKNASFVLNF,4.05 ± 0.066
16,YDGFDITYSYDLSVVFCVDR,0.046 ± 0.44
17,VASRFDSSYMCKMAFI,-0.651 ± 0.54
18,YNFDYTLMNYPLKAVPSEW,8.286 ± 0.053
19,VLSSHRFNEAKMN,-0.366 ± 0.41
20,LKNKSPCSR,0.039 ± 0.29
21,TVSHDTGFGRNFFHVLLLS,-0.012 ± 1.1
22,CPLMNLYRNVFYVWKLNFLP,inactive
23,LNFWLHD,0.09 ± 1
24,VIKMVMEVPVTGFPRSRNSF,-0.369 ± 1.1
25,YALDL,0.08 ± 0.55

row,Substance,amyloid nucleation score
1,SMYPGLDT,-0.353 ± 0.79
2,VMYKAFFRYFGR,1.71 ± 0.24
3,RPISLCALYWLNLRANIHCR,0.144 ± 0.56
4,RGFCYNIT,0.305 ± 0.37
5,FYRGT,-0.974 ± 0.55
6,CIEMFFETVFTKGLSRYACW,-0.55 ± 0.3
7,LGIYIVGTNVSSSWLFLCNR,0.476 ± 0.4
8,LNVDGAFGKTAWYFRFVIQV,-0.127 ± 1
9,VTVNE,0.711 ± 0.21
10,GCMTMTWMTNYLSFHNDTFT,4.26 ± 0.065
11,WIYIIVSPFMRWLESSLLSA,inactive
12,SNSFVVFSRVVTRKFVCVLW,-0.691 ± 0.46
13,HSNGKMNTTIHVVSELTVMR,4.31 ± 0.058
14,FITDYTWTYLHAWLFIHQGV,-0.705 ± 1.1
15,VLYGVCIVCCSWSMTSC,0.959 ± 0.6
16,KTFLVDSLCNRL,inactive
17,AVRYSLFF,5.09 ± 0.054
18,RKQCNKFGVWDQI,0.214 ± 0.5
19,MVINSAWVCENGLSQYFLAK,4.27 ± 0.075
20,IVLSDSISQAFWASICHQGF,-1.55 ± 1.1
21,HSRHHWYPSWQFWMLRPQNC,1.4 ± 0.43
22,RTLLSSCKIATSLWHMCYPQ,-0.381 ± 1.1
23,RLFDRSVLPLGLWVRCKIHW,0.28 ± 0.61
24,ICCRRSMPMIINDLNFMSNS,7.928 ± 0.035
25,LSGLRSFLRRWRGQVKPVLV,-0.133 ± 1

row,Substance,amyloid nucleation score
1,CPSYSTMSTGFVERVLPTGR,1.53 ± 0.39
2,TFLTLA,0.979 ± 0.4
3,SYEAGMHVNKGYLQVMCVDG,-0.086 ± 0.23
4,LRSLINCYAKVICRTYRFVG,-0.885 ± 0.61
5,HMMFKSPYRCLLLNLTGYVL,0.934 ± 0.25
6,VSIVRYIFSPNWFVTIASIY,-1.51 ± 0.49
7,NACYIDFGRTAVSTVLAILY,3.41 ± 0.09
8,SSVMPAVIAFACCCNKSTFA,-0.237 ± 0.38
9,SFTCLLSFKQSCHSFMPCPC,1.03 ± 0.32
10,RGGSIIYHALVRVVFFLSVY,-1.01 ± 0.64
11,SFGCINTCFCMCSCFVREMD,1.5 ± 0.14
12,KDPLNYNSYSVLLDIWWNLS,1.57 ± 0.15
13,AVIMRFVYYDAYWGLWMVKE,0.228 ± 1
14,TNDVTSWKLTHCYLWPKADF,-0.328 ± 0.32
15,FSSNTKSNKRIDV,0.147 ± 0.8
16,WVWRIRDCLIVSSTPTGMRV,0.806 ± 0.27
17,GNYISICESFF,-0.177 ± 1
18,DGRADFYSCVCLYYSWNGY,3.62 ± 0.037
19,CLRGDNKISLDRSGGMTFGQ,1.79 ± 0.18
20,RTGLTRYLLYFPV,0.326 ± 0.22
21,DLVVYLSPVGGTGRFYEVGA,3.92 ± 0.062
22,TLGTFVWVFRSFTCLLLEEQ,3.29 ± 0.057
23,VRCEESWGDIICD,inactive
24,KQLFSLISYVG,-1.4 ± 1.1
25,NLFYKKSLRLCYGLLQLRDF,inactive

row,Substance,amyloid nucleation score
1,RDCICSVYPFAVLMGSQPLA,9.086 ± 0.063
2,HLMCESGRVFWKD,0.015 ± 0.31
3,PSYDVCSMDCLDEKDGFMWL,0.25 ± 0.62
4,ISPLIG,0.33 ± 0.49
5,GVTKNCSC,-0.036 ± 0.63
6,LTFLYGVGVRFCRPSLVVQS,0.2 ± 0.24
7,IANKCVS,-1.12 ± 0.55
8,YNVTYLLRCFSILVSRVLKV,inactive
9,FSSWAFLMSRLCYHDSESHL,0.417 ± 0.16
10,ELYWGS,0.509 ± 0.57
11,WLGRCVNNNLNDVCDFQT,-1.17 ± 0.39
12,AVCWYNVQVRSSRNLYGQPK,0.221 ± 0.5
13,LFSCGKSMQLVMWYGLSFCG,0.306 ± 0.37
14,YNTISDWTSLEPYTLVRVLL,1.91 ± 0.064
15,YEPSATEPRLRRFHGEARLL,0.32 ± 0.65
16,ALYMDVRL,1.53 ± 0.19
17,SIRQTCKFGYIMAWL,7.064 ± 0.057
18,NFIKKGCGKGNLDLFSLRDV,inactive
19,PSRVSVSYM,2.69 ± 0.076
20,CDLIASQSVIAIVNIMIRHV,6.63 ± 0.062
21,FPWQSSDYFWNHARRS,-0.043 ± 0.6
22,QWVDQVYIAETIVPLSNKVV,-0.398 ± 1
23,DNSVHCSFSYFNLPELKGCY,3.8 ± 0.065
24,GVASMSRRARSHKMGGWMGR,1.05 ± 0.41
25,FRAPFTDAGPWSSSGNFLRL,-0.151 ± 0.37

row,Substance,amyloid nucleation score
1,FTVVIINISYTLSVLRERQM,1.5 ± 0.14
2,LCINN,-1.99 ± 1.1
3,MGTPLNFGCQY,-1.26 ± 0.48
4,YYGLVQRLFSCVCYYVLTF,inactive
5,SFHLS,-0.019 ± 0.6
6,ISFMQGDCRWHQVNSLQRIM,-0.94 ± 0.54
7,RGMWRCHNG,1.49 ± 0.37
8,WFFFFNGPAYVFNLNIVNFS,7.035 ± 0.06
9,LFVCMTLGYSLGKSHFDNGS,4.1 ± 0.044
10,PEWFGR,0.588 ± 0.23
11,MVVLCHINLYEYGSFNPSST,6.31 ± 0.077
12,SYILGILFVFYVCETKYLYL,0.328 ± 0.25
13,KLGVKLASTLGISRLPHTTS,0.827 ± 0.23
14,QTSYMDYKYRMGFLS,-0.69 ± 0.63
15,SIRSVILLCATLTSVGASLS,2.14 ± 0.14
16,VLRNKVVCSYQLYLRWFGKD,1.64 ± 0.37
17,LDKKVSVSAVRLTRRDASEE,2.25 ± 0.098
18,DLEYF,-1.56 ± 0.54
19,LGLCEVNMFNIRHFTLRSCY,0.219 ± 1
20,WYSQVPERALRQWGFFSLGG,0.397 ± 0.46
21,KKSRNPHGKFTWTFGFVKKL,-1.76 ± 1.1
22,ACTLCGVWSVFTIFARHKIR,3.1 ± 0.18
23,WTVRSARFWMSKQVVFSTTV,0.812 ± 0.5
24,NFFRAENVYCSMLFSKGWDW,6.966 ± 0.049
25,ICIDRNRI,0.396 ± 0.34

row,Substance,amyloid nucleation score
1,SWFWVPGNQLLMTIEGFQWS,-0.281 ± 0.35
2,LYGGCRKWFTRTCFSFHMYR,0.562 ± 0.81
3,IWGCKELLDVRTAQGVDGM,3.87 ± 0.078
4,AGASSRKWGLYDVYVERSEA,inactive
5,TYQFMHVRLFRPMTSFIVYG,0.36 ± 0.56
6,AAAHLH,-0.75 ± 0.76
7,PFMLSVHFALYMSDYIYMHL,-0.02 ± 0.46
8,SVKQGN,0.132 ± 0.22
9,KASTRQ,1.51 ± 0.34
10,LTPNCGKVGGRMRGRILSGV,0.787 ± 0.3
11,PSVDCSEIKPIWNLVKYFLI,-0.571 ± 0.26
12,SGSYF,-0.504 ± 0.45
13,FRHYSYRRWQSLHKIVGICH,inactive
14,YRWNYWFVVMMRPSSEDYLR,4.951 ± 0.047
15,VREYQSWPKGCCT,4.78 ± 0.065
16,GAVGARLAINGSSRWMCSWY,2.39 ± 0.1
17,DIVIYWV,-0.139 ± 0.63
18,TSVYFHFGFPPWVGVPRRLT,3.17 ± 0.077
19,CPISCTYMEYTSWSSSRC,1.18 ± 0.44
20,LSEFDHYDWVSSSTLFGFCC,-1.13 ± 1.1
21,YRDNCMRNIENSVT,-0.802 ± 0.54
22,SKKELLNAVPVGMG,0.113 ± 0.63
23,IESSGWAGRGTYSTYLASNV,1.2 ± 0.66
24,RYVVCNGRNLELLDFMNSRS,-0.74 ± 1.1
